Measured values reported in paper PMC6156121 (Science Advances, 2018).

Target: purified mTOR protein (Origene) (human, UniProt P42345 1-2549)
Assay: co-IP

B1: purified ETV7 protein (Origene) (natural protein)
chain: MQEGELAISPISPVAAMPPLGTHVQARCEAQINLLGEGGICKLPGRLRIQPALWSREDVLHWLRWAEQEYSLPCTAEHGFEMNGRALCILTKDDFRHRAPSSGDVLYELLQYIKTQRRALVCGPFFGGIFRLKTPTQHSPVPPEEVTGPSQMDTRRGHLLQPPDPGLTSNFGHLDDPGLARWTPGKEESLNLCHCAELGCRTQGVCSFPAMPQAPIDGRIADCRLLWDYVYQLLLDTRYEPYIKWEDKDAKIFRVVDPNGLARLWGNHKNRVNMTYEKMSRALRHYYKLNIIKKEPGQKLLFRFLKTPGKMVQDKHSHLEPLESQEQDRIEFKDKRPEISP
B1: binds.
